Measured values as given in the RNAGym collection of RNA variant scans (doi:10.1093/nar/gkz1192).

B1: CPEB3 Ribozyme (parent)
chain: UAACAGGGGGCCACAGCAGAAGCGUUCACGUCGCAGCCCCUGUCAGAUUCUGGUGAAUCUGCGAAUUCUGCUGUAUAUCUC

Variants of: B1
Test: self-cleavage, relative activity (ratio to wild type); higher = more cleavage; in vitro, sequencing
Outline: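 For each CPEB3 ribozyme variant, relative activity is its cleaved/total read fraction divided by the unmutated ribozyme's. Barcoded error-prone PCR libraries were transcribed by T7 RNA polymerase (5 hours, 37°C) and held in DNase I for 15 min before an EDTA stop, with cleavage occurring throughout. Template-switching reverse transcription and Illumina sequencing were used to read the RNAs. A 5-read minimum applied, and results are the mean of three batches.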
G46U U67A gave a self-cleavage of 0.23.
Work on U48A U49A yielded a self-cleavage of 0.38.
U48A U49G showed a self-cleavage of 0.21.
For U48A U49C, the self-cleavage was 0.3.
With G46C A56U the self-cleavage was 0.13.
A45U G61A showed a self-cleavage of 0.46.
Variant G46A G63C has a self-cleavage of 0.62.
Variant G46U G73A has a self-cleavage of 0.81.
G46C U54A gave a self-cleavage of 0.15.
A47C A77G gave a self-cleavage of 0.34.
With G46A U72C the self-cleavage was 0.32.
In the case of G46U U72C, the self-cleavage is reported as 0.22.
G46U U72G showed a self-cleavage of 0.25.
For G46U U72A, the self-cleavage was 0.37.
A47U U51A gave a self-cleavage of 0.4.
A47U U51G gave a self-cleavage of 0.47.
A47U U51C showed a self-cleavage of 0.43.
In the case of G46U G70A, the self-cleavage is reported as 0.08.
With U48A U51C the self-cleavage was 0.44.
Variant A47G G53A has a self-cleavage of 1.18.
With A47G G53C the self-cleavage was 1.19.
G46C U80A gave a self-cleavage of 0.2.
G46A G73A gave a self-cleavage of 0.99.
With A47G U74A the self-cleavage was 1.21.
For A47G U74G, the self-cleavage was 1.24.
With A47G U74C the self-cleavage was 1.13.
A45U C68G gave a self-cleavage of 0.25.
A45U C68U gave a self-cleavage of 0.53.
G46U A56G showed a self-cleavage of 0.18.
Variant G46U A56U has a self-cleavage of 0.17.
G46A C68A gave a self-cleavage of 0.15.
Work on A47G C59A yielded a self-cleavage of 0.29.
For A47G C59G, the self-cleavage was 0.35.
G46U U58C gave a self-cleavage of 0.17.
With A47U G52A the self-cleavage was 0.86.
Variant G46U A65G has a self-cleavage of 0.07.
Work on A45U C79A yielded a self-cleavage of 0.8.
For A45U C79U, the self-cleavage was 0.77.
Variant A47G U72G has a self-cleavage of 0.35.
A47G U72C showed a self-cleavage of 1.12.
For A47G U72A, the self-cleavage was 0.64.
With A47U U78A the self-cleavage was 0.7.
Variant A47U U78C has a self-cleavage of 0.57.
For G46A A77G, the self-cleavage was 0.27.
G46A A77U gave a self-cleavage of 0.48.
In the case of A47C U69C, the self-cleavage is reported as 0.25.
A47U C79U showed a self-cleavage of 0.52.
With A47C G55U the self-cleavage was 0.16.
In the case of A47G U76G, the self-cleavage is reported as 1.16.
A47G U76C showed a self-cleavage of 1.04.
Variant A47G U76A has a self-cleavage of 0.98.
Variant A45U G53A has a self-cleavage of 0.68.
Work on A45U G53C yielded a self-cleavage of 0.33.
With A45U G53U the self-cleavage was 0.58.
For A47G G63C, the self-cleavage was 0.93.
A47G G63A showed a self-cleavage of 0.88.
With A47U G70A the self-cleavage was 0.13.
Work on A47U G70U yielded a self-cleavage of 0.14.
A47U A65U showed a self-cleavage of 0.16.
For A47U A65G, the self-cleavage was 0.35.
For A47G C68A, the self-cleavage was 0.43.
A47G C68U gave a self-cleavage of 0.89.
For A47G U78C, the self-cleavage was 0.93.
Variant A47G U78G has a self-cleavage of 0.79.
Variant A47G U78A has a self-cleavage of 1.07.
A47U U58C gave a self-cleavage of 0.39.
With G46A A47U the self-cleavage was 0.24.
Work on G46A A47C yielded a self-cleavage of 0.17.
A45U G63C showed a self-cleavage of 0.66.
For A45U G63U, the self-cleavage was 0.46.
In the case of A45U G63A, the self-cleavage is reported as 0.54.
G46A U49A showed a self-cleavage of 0.33.
G46A U49C showed a self-cleavage of 0.11.
For A45U C71A, the self-cleavage was 0.1.
For A45U C71U, the self-cleavage was 0.13.
With A47G C71U the self-cleavage was 0.87.
With A47C U80C the self-cleavage was 0.43.
With U48A G55A the self-cleavage was 0.21.
With A47C C62U the self-cleavage was 0.18.
Variant G46A U67A has a self-cleavage of 0.18.
Variant G46A U67C has a self-cleavage of 0.15.
Variant A47U C68A has a self-cleavage of 0.25.
For G46C U72A, the self-cleavage was 0.25.
In the case of A47G U51A, the self-cleavage is reported as 0.98.
Variant A47G U51G has a self-cleavage of 0.79.
Work on A47G U51C yielded a self-cleavage of 0.94.
Work on A47U U67A yielded a self-cleavage of 0.33.
For A47U U67C, the self-cleavage was 0.3.
Variant A47G C62U has a self-cleavage of 0.3.
A47G C62A gave a self-cleavage of 0.33.
A47U U74A showed a self-cleavage of 0.64.
A47U U74C showed a self-cleavage of 1.14.
For A47U U74G, the self-cleavage was 0.96.
G46U A57G showed a self-cleavage of 0.22.
For A45U U66C, the self-cleavage was 0.27.
A45U U66G gave a self-cleavage of 0.13.
In the case of A45U U66A, the self-cleavage is reported as 0.31.
A47U A56G showed a self-cleavage of 0.35.
A47U A56U gave a self-cleavage of 0.33.
Variant U48A A77G has a self-cleavage of 0.54.
A47C A75U showed a self-cleavage of 0.3.
A47C U76A showed a self-cleavage of 0.48.
With G46A U78C the self-cleavage was 0.38.
Work on A47U G55U yielded a self-cleavage of 0.26.
In the case of U48A C50U, the self-cleavage is reported as 0.35.
With G46A C50U the self-cleavage was 0.17.
G46A C50G gave a self-cleavage of 0.21.
For G46U G53C, the self-cleavage was 0.23.
With A47G U60G the self-cleavage was 0.41.
For A47G U60A, the self-cleavage was 0.41.
In the case of A47G U60C, the self-cleavage is reported as 0.37.
For A47U U54A, the self-cleavage was 0.72.
A47U U54C gave a self-cleavage of 0.37.
With U48A the self-cleavage was 0.48.
In the case of U48A A57G, the self-cleavage is reported as 0.47.
U48A A57U gave a self-cleavage of 1.09.
For A45U U72A, the self-cleavage was 0.39.
With A45U U72G the self-cleavage was 0.61.
With A45U U72C the self-cleavage was 0.5.
In the case of A47G U80A, the self-cleavage is reported as 1.13.
Variant A47G U80C has a self-cleavage of 1.08.
Variant A45U G55A has a self-cleavage of 0.14.
A45U G55U gave a self-cleavage of 0.24.
Variant U48A C79G has a self-cleavage of 0.73.
Work on G46A U74C yielded a self-cleavage of 0.48.
A47G C50U showed a self-cleavage of 0.8.
Work on A47G C50A yielded a self-cleavage of 0.59.
Work on A47C A65U yielded a self-cleavage of 0.12.
With U48A A65U the self-cleavage was 0.15.
U48A A65G gave a self-cleavage of 0.4.
A47G C79U gave a self-cleavage of 1.12.
For G46U U49A, the self-cleavage was 0.29.
Work on G46A U48C yielded a self-cleavage of 0.26.
A47G U58A gave a self-cleavage of 0.57.
With A47G U58C the self-cleavage was 1.1.
A47G U58G gave a self-cleavage of 0.29.
Work on U48A U54A yielded a self-cleavage of 0.43.
U48A U54C showed a self-cleavage of 0.39.
A45U G52C gave a self-cleavage of 0.29.
Variant A45U U78A has a self-cleavage of 0.62.
A45U U78G gave a self-cleavage of 0.65.
Work on A45U U78C yielded a self-cleavage of 0.44.
G46U U78C gave a self-cleavage of 0.27.
For A47C A57G, the self-cleavage was 0.5.
For G46U U60A, the self-cleavage was 0.38.
Variant G46U U60C has a self-cleavage of 0.19.
For A47U A64G, the self-cleavage was 0.37.
A47U A64U showed a self-cleavage of 0.26.
Work on A47U C81A yielded a self-cleavage of 1.13.
A45U U69A gave a self-cleavage of 0.31.
A45U U69C gave a self-cleavage of 0.31.
A45U U69G showed a self-cleavage of 0.51.
Variant G46A U66C has a self-cleavage of 0.25.
With A47G A65U the self-cleavage was 0.49.
In the case of A47G A65G, the self-cleavage is reported as 0.4.
For G46A U76C, the self-cleavage was 0.19.
G46A U76A gave a self-cleavage of 0.5.
For A47C G63A, the self-cleavage was 0.56.
For G46U U76C, the self-cleavage was 0.38.
Variant G46U A75C has a self-cleavage of 0.37.
Work on G46U A75G yielded a self-cleavage of 0.22.
For A47G G73U, the self-cleavage was 1.26.
Work on A47G G73A yielded a self-cleavage of 1.21.
With A47C U60A the self-cleavage was 0.15.
For G46C U49A, the self-cleavage was 0.04.
Work on G46U A64U yielded a self-cleavage of 0.18.
Work on G46U A64G yielded a self-cleavage of 0.16.
